Laboratory results from publication PMC5476561.

Experiments:
[1] = target: SpyCatcher-AP205; assay: reducing SDS-PAGE of the covalent conjugate
[2] = target: Pfs25-IMX313-CTag (Plasmodium falciparum) (UniProt P13829); assay: SEC
[3] = target: Pfs25-IMX313-CTag (Plasmodium falciparum) (UniProt P13829); assay: non-reducing SDS-PAGE; Coomassie-stained gel, non-reduced against reduced sample

Substance	percent coupling (coat protein molecules linked to Pfs25-SpyTag) [1] [%]	stoichiometry N [2]	stoichiometry N [3]
Pfs25-SpyTag-CTag (from UniProt P13829 22-193)	100	–	–
Pfs25-IMX313-CTag (from UniProt P13829 22-193)	–	7	7
